Results reported in article PMC9490022, “Enhanced salt-tolerance of Bacillus subtilis glutaminase by fusing self-assembling amphipathic peptides at its N-terminus” (Frontiers in Bioengineering and Biotechnology, 2022).

B1: E3C/E55F/D213T (Bacillus subtilis subsp. subtilis str. 168; D213T/E3C/E55F) (protein)
chain: MKCLIKEHQKDINPALQLHDWVEYYRPFAANGQSANYIPALGKVNDSQLGICVLFPDGTMIHAGDWNVSFTMQSISKVISFIAACMSRGIPYVLDRVDVEPTGDAFNSIIRLEINKPGKPFNPMINAGALTIASILPGESAYEKLEFLYSVMETLIGKRPRIHEEVFRSEWETAHRNRALAYYLKETNFLEAEVEETLEVYLKQCAMESTTETIALIGLILAHDGYHPIRHEQVIPKDVAKLAKALMLTCGMYNASGKYAAFVGVPAKSGVSGGIMALVPPSARREQPFQSGCGIGIYGPAIDEYGNSLTGGMLLKHMAQEWELSIF
notes: full-length triple mutant, N-terminal His-tag kept, expressed in B. subtilis WB600 (pP43NMK), about 40 kDa
B2: EAK16-E3C/E55F/D213T (Bacillus subtilis subsp. subtilis str. 168; D213T/E3C/E55F) (protein)
chain: KCLIKEHQKDINPALQLHDWVEYYRPFAANGQSANYIPALGKVNDSQLGICVLFPDGTMIHAGDWNVSFTMQSISKVISFIAACMSRGIPYVLDRVDVEPTGDAFNSIIRLEINKPGKPFNPMINAGALTIASILPGESAYEKLEFLYSVMETLIGKRPRIHEEVFRSEWETAHRNRALAYYLKETNFLEAEVEETLEVYLKQCAMESTTETIALIGLILAHDGYHPIRHEQVIPKDVAKLAKALMLTCGMYNASGKYAAFVGVPAKSGVSGGIMALVPPSARREQPFQSGCGIGIYGPAIDEYGNSLTGGMLLKHMAQEWELSIF
notes: N-terminal His-tag, designed peptide EAK16 (…) and PT linker (…) fused to N-terminus of triple mutant; expressed in B. subtilis WB600; oligomerises

Substrate: NC(=O)CC[C@H](N)C(=O)O
Assay: purified protein
Assay type: biochemical, Bacillus subtilis
Settings: 10–100 mM L-glutamine, 20 mM potassium phosphate, pH 7.5, 37°C, no NaCl

Row | Protein | Km [mM] | kcat [s⁻¹] | kcat/Km [M⁻¹ s⁻¹]
1 | B1 | 22.72 ± 1.5 | 3730 ± 190 | 162000 ± 3240
2 | B2 | 18.45 ± 1.2 | – | 174000 ± 4200
